Measurements: the Immune Epitope Database (IEDB)
pKd: −log10 of the molar value.

How the values were obtained:
HLA-B*39:01 = assay: IEDB peptide-MHC binding, purified MHC/competitive/fluorescence; filed as Kd, often an IC50 or EC50 that approximates it; ≥ and ≤ were set here for values at or beyond the usual limits of such assays
HLA-A*69:01 [1] = assay: as above
HLA-A*02:19 = assay: as above
HLA-A*03:01 [2] = assay: as above
HLA-A*68:02 = assay: as above
HLA-A*02:01 [3] = assay: as above
HLA-A*02:16 = assay: as above
HLA-A*26:01 [4] = assay: as above
HLA-B*51:01 = assay: as above
HLA-A*29:02 = assay: as above
HLA-A*02:12 = assay: as above
HLA-A*24:03 [5] = assay: as above; settings: source organism: Rickettsia sibirica 246
HLA-B*57:01 = assay: as above
HLA-B*27:03 = assay: as above
HLA-B*18:01 [6] = assay: as above
HLA-B*15:01 = assay: IEDB peptide-MHC binding, purified MHC/direct/fluorescence; filed as Kd, often an IC50 or EC50 that approximates it; ≥ and ≤ were set here for values at or beyond the usual limits of such assays
HLA-A*30:01 = assay: as above
HLA-A*69:01 [7] = assay: as above
HLA-A*03:01 [8] = assay: as above
HLA-B*58:01 = assay: as above
HLA-A*02:01 [9] = assay: as above
HLA-A*01:01 = assay: as above
HLA-A*31:01 = assay: as above
HLA-B*07:02 = assay: as above
HLA-A*11:01 = assay: as above
HLA-A*26:01 [10] = assay: as above
HLA-B*40:01 = assay: as above
HLA-B*44:02 = assay: as above
HLA-A*24:03 [11] = assay: as above
HLA-B*08:01 = assay: as above
HLA-B*35:01 [12] = assay: as above
HLA-B*27:05 = assay: as above
HLA-A*02:03 = assay: IEDB peptide-MHC binding, purified MHC/competitive/fluorescence; filed as Kd, often an IC50 or EC50 that approximates it; ≥ and ≤ were set here for values at or beyond the usual limits of such assays; settings: source organism: Escherichia coli B171
HLA-B*46:01 [13] = assay: IEDB peptide-MHC binding, purified MHC/direct/fluorescence; filed as Kd, often an IC50 or EC50 that approximates it; ≥ and ≤ were set here for values at or beyond the usual limits of such assays; settings: source organism: Escherichia coli O157:H7
HLA-A*24:02 = assay: as above; settings: source organism: Escherichia coli O157:H7
HLA-B*18:01 [14] = assay: as above; settings: source organism: Escherichia coli O157:H7
HLA-B*15:02 = assay: as above; settings: source organism: Escherichia coli O157:H7
HLA-B*46:01 [15] = assay: IEDB peptide-MHC binding, purified MHC/competitive/fluorescence; filed as Kd, often an IC50 or EC50 that approximates it; ≥ and ≤ were set here for values at or beyond the usual limits of such assays; settings: source organism: Giardia lamblia ATCC 50803
HLA-B*35:01 [16] = assay: as above; settings: source organism: West Nile virus
[17] = source organism: Rickettsia sibirica 246
[18] = source organism: Giardia lamblia ATCC 50803
[19] = source organism: Escherichia coli B171
[20] = source organism: Escherichia coli O157:H7
[21] = source organism: Salmonella enterica subsp. enterica serovar Typhimurium
[22] = source organism: Pseudomonas aeruginosa
[23] = source organism: Pseudomonas aeruginosa UCBPP-PA14

AMYDPQTYY
pKd (HLA-B*39:01; [17]): ≤ 4.70 | pKd (HLA-A*69:01 [1]; [17]): ≤ 4.70 | pKd (HLA-A*02:19; [17]): ≤ 4.70 | pKd (HLA-A*03:01 [2]; [17]): 7.85 | pKd (HLA-A*68:02; [17]): ≤ 4.70 | pKd (HLA-A*02:01 [3]; [17]): ≤ 4.70 | pKd (HLA-A*02:16; [17]): ≤ 4.70 | pKd (HLA-A*26:01 [4]; [17]): ≤ 4.70 | pKd (HLA-B*51:01; [17]): ≤ 4.70 | pKd (HLA-A*29:02; [17]): 9.70 | pKd (HLA-A*02:12; [17]): ≤ 4.70 | pKd (HLA-A*24:03 [5]): ≤ 4.70 | pKd (HLA-B*57:01; [17]): ≤ 4.70 | pKd (HLA-B*27:03; [17]): ≤ 4.70 | pKd (HLA-B*18:01 [6]; [17]): ≤ 4.70

IPRQWHPFA
pKd (HLA-B*15:01; [18]): ≤ 4.70 | pKd (HLA-A*30:01; [18]): 5.33 | pKd (HLA-A*69:01 [7]; [18]): ≤ 4.70 | pKd (HLA-A*03:01 [8]; [18]): ≤ 4.70 | pKd (HLA-B*58:01; [18]): ≤ 4.70 | pKd (HLA-A*02:01 [9]; [18]): ≤ 4.70 | pKd (HLA-A*01:01; [18]): ≤ 4.70 | pKd (HLA-A*31:01; [18]): ≤ 4.70 | pKd (HLA-B*07:02; [18]): 6.81 | pKd (HLA-A*11:01; [18]): ≤ 4.70 | pKd (HLA-A*26:01 [10]; [18]): ≤ 4.70 | pKd (HLA-B*40:01; [18]): ≤ 4.70 | pKd (HLA-B*44:02; [18]): ≤ 4.70 | pKd (HLA-A*24:03 [11]; [18]): 4.97 | pKd (HLA-B*08:01; [18]): 5.42 | pKd (HLA-B*35:01 [12]; [18]): 5.96 | pKd (HLA-B*27:05; [18]): ≤ 4.70

KAIIDTAQF
pKd (HLA-B*39:01; [19]): ≤ 4.70 | pKd (HLA-A*69:01 [1]; [19]): ≤ 4.70 | pKd (HLA-A*02:19; [19]): ≤ 4.70 | pKd (HLA-A*03:01 [2]; [19]): ≤ 4.70 | pKd (HLA-A*68:02; [19]): ≤ 4.70 | pKd (HLA-A*02:01 [3]; [19]): ≤ 4.70 | pKd (HLA-A*02:16; [19]): ≤ 4.70 | pKd (HLA-A*26:01 [4]; [19]): ≤ 4.70 | pKd (HLA-A*02:03): ≤ 4.70 | pKd (HLA-B*51:01; [19]): ≤ 4.70 | pKd (HLA-A*29:02; [19]): ≤ 4.70 | pKd (HLA-A*02:12; [19]): ≤ 4.70 | pKd (HLA-B*57:01; [19]): 6.68 | pKd (HLA-B*27:03; [19]): ≤ 4.70 | pKd (HLA-B*18:01 [6]; [19]): ≤ 4.70

LDKGKLWHL
pKd (HLA-B*46:01 [13]): ≤ 4.70 | pKd (HLA-B*15:01; [20]): ≤ 4.70 | pKd (HLA-A*69:01 [7]; [20]): ≤ 4.70 | pKd (HLA-A*03:01 [8]; [20]): ≤ 4.70 | pKd (HLA-B*58:01; [20]): ≤ 4.70 | pKd (HLA-A*02:01 [9]; [20]): ≤ 4.70 | pKd (HLA-A*01:01; [20]): ≤ 4.70 | pKd (HLA-A*31:01; [20]): ≤ 4.70 | pKd (HLA-B*07:02; [20]): ≤ 4.70 | pKd (HLA-A*11:01; [20]): ≤ 4.70 | pKd (HLA-B*40:01; [20]): ≤ 4.70 | pKd (HLA-B*44:02; [20]): ≤ 4.70 | pKd (HLA-A*24:02): ≤ 4.70 | pKd (HLA-B*27:05; [20]): ≤ 4.70 | pKd (HLA-B*18:01 [14]): ≤ 4.70

LQLTAVFAY
pKd (HLA-B*46:01 [13]): ≤ 4.70 | pKd (HLA-B*15:01; [20]): 7.10 | pKd (HLA-A*69:01 [7]; [20]): ≤ 4.70 | pKd (HLA-A*03:01 [8]; [20]): ≤ 4.70 | pKd (HLA-B*58:01; [20]): ≤ 4.70 | pKd (HLA-A*02:01 [9]; [20]): ≤ 4.70 | pKd (HLA-A*01:01; [20]): ≤ 4.70 | pKd (HLA-B*07:02; [20]): ≤ 4.70 | pKd (HLA-A*11:01; [20]): 5.70 | pKd (HLA-A*26:01 [10]; [20]): ≤ 4.70 | pKd (HLA-B*40:01; [20]): ≤ 4.70 | pKd (HLA-B*44:02; [20]): ≤ 4.70 | pKd (HLA-B*08:01; [20]): ≤ 4.70 | pKd (HLA-B*35:01 [12]; [20]): 7.99 | pKd (HLA-B*27:05; [20]): 7.04 | pKd (HLA-B*15:02): 6.00

MLMFITSSH
pKd (HLA-B*46:01 [15]): 6.56 | pKd (HLA-A*30:01; [18]): ≤ 4.70 | pKd (HLA-A*03:01 [8]; [18]): 6.78 | pKd (HLA-A*11:01; [18]): 6.84

RVNKGTGVK
pKd (HLA-B*15:01; [21]): 5.35 | pKd (HLA-A*30:01; [21]): 8.74 | pKd (HLA-A*69:01 [7]; [20]): ≤ 4.70 | pKd (HLA-A*03:01 [8]; [21]): 6.45 | pKd (HLA-B*58:01; [20]): ≤ 4.70 | pKd (HLA-A*02:01 [9]; [21]): 5.87 | pKd (HLA-A*01:01; [20]): ≤ 4.70 | pKd (HLA-A*31:01; [21]): 6.99 | pKd (HLA-B*07:02; [21]): 4.90 | pKd (HLA-A*11:01; [21]): 7.22 | pKd (HLA-A*26:01 [10]; [20]): ≤ 4.70 | pKd (HLA-B*40:01; [20]): ≤ 4.70 | pKd (HLA-B*44:02; [20]): ≤ 4.70 | pKd (HLA-A*24:03 [11]; [21]): 6.36 | pKd (HLA-B*08:01; [20]): ≤ 4.70 | pKd (HLA-B*27:05; [20]): ≤ 4.70

SPADERAVA
pKd (HLA-B*15:01; [22]): ≤ 5.30 | pKd (HLA-A*30:01; [22]): 5.08 | pKd (HLA-A*69:01 [7]; [23]): ≤ 4.70 | pKd (HLA-A*03:01 [8]; [23]): ≤ 4.70 | pKd (HLA-B*58:01; [23]): ≤ 4.70 | pKd (HLA-A*02:01 [9]; [23]): ≤ 4.70 | pKd (HLA-A*01:01; [23]): ≤ 4.70 | pKd (HLA-A*31:01; [23]): ≤ 4.70 | pKd (HLA-B*07:02; [22]): 7.38 | pKd (HLA-A*11:01; [23]): ≤ 4.70 | pKd (HLA-A*26:01 [10]; [23]): ≤ 4.70 | pKd (HLA-B*40:01; [23]): ≤ 4.70 | pKd (HLA-A*24:03 [11]; [23]): ≤ 4.70 | pKd (HLA-B*08:01; [23]): ≤ 4.70 | pKd (HLA-B*35:01 [12]; [22]): 6.91 | pKd (HLA-B*27:05; [23]): ≤ 4.70

TNPAITSRV
pKd (HLA-A*68:02; source organism: Vibrio cholerae 2740-80): 7.66

WMILRAISF
pKd (HLA-B*35:01 [16]): 5.89 | pKd (HLA-A*30:01; source organism: West Nile virus SPU116/89): ≤ 4.70
